Assay: soluble on expression in E. coli; label from the status in PepcDB or PDB records

Sequence | soluble on expression in E. coli
MKAVGLVVEYNPFHNGHLYHAQTAKLQTGCDTAVAVMSGHFLQRGEPAVVSKWARTKMALQSGVDLVIELPYLYAVQKADIFARGSVSILNELECEALFFGSENGDIKPFLETAQLIDEHKHILNDRIKEELKKGASYPAAAAIAFSSILHTESALDLSKPNNILGYQYVTSILTGGYPMKPYTTARISSDYHDADLPEGENHIASATSIRKAMIGQNLEACLRFLPAASARELAAYRKSFGLWHTPESYFSYLKYSLSTVTARELQQVYEVEEGLEHRIIRSIRKSSSYQEFMELLKTKRYTWTRLQRMNTHILTRTKKQDMQKLLDNDKAPYIRLLGMTKKGQAYLSEKKKALSVPLVSKLSSFSHPALDLDVKASRIYSLPIEEPLRTEFDLQEYG | not soluble
MGSDKIHHHHHHMSTRMVTLHGRIVLRASIELLTGLHIGGAAGGLEIGGLDKPVIRNPITNQPYIPGSSLKGKLRSLMEKVYGAPQTFRINEGVFIHVPTNPEEYQRYYQIAGVFGTLPNHKQLTIDVPTRLIVRDVPLTRESEQELRRLRTDLPYTEIKWEAAIDRVTSAAAPRQIERVPAGAVFGPAEVVYSLYVGNGEQLSDVIRLFGSVYEAFTYLEDDYLGGMGSRGNGQVRLRDITVLARRLESGRYGELTTIREAKELRELDRNGLLEELQRFFNPA | not soluble
EVRALQLEYDQSMEAYQKLVEISPDAIYIQSMEGEILFANPSGIKLLGATDLNELVGLSVMNFIHPDYLNVVENRIGDAENLSGNISEQKAVTLKGEILDIEVVSVAFSYNGKAAEQVIVRNVT | not soluble
MAHHHHHHMVQRTLLDFVRKKDPSPNVINVDAESDEQDEAASRKRRMQGVREPALAFTKPRTENKDDICCSNNFSALITDSGWRAFLQPLTSTTNFRNIEQFIEGEKTKGKVILPPSDLIFSAFNSTPLDRLKVVLLGQDPYHNIGQAHGLCFSVLPGVRPPPSLLNMYKELTTDISGFKSPPHGYLQCWAEQGVLMLNATLTVEAHQANSHAKCGWQAFTDGVIRLLSEKHQRPIVFLLWGGFARKKITLIDQKRHLVIENAHPSPLSAAKWWGSRPFSKCNAALTQLGHSPIDWSIPMSVERRH | not soluble
MGSDKIHHHHHHMNDAAPTCTGGCTLNVLHTTTYHYSQPVEHAQQRAVATPPDLPWQSVTAHDTRIEPVPTHQHVRTDAFGNRVLHFMLDVPHTQMQLTCASTVVLTPRWQTLDPSASAPWETVAQSLRFHAAQPFEPATQFAFASPNIALHPSLRDYALPSFGAGVPVVAGAMDLMRRIHADFTYHSESTEVHTPAMQAFAQRSGVCQDFAQVMIGCLRSVGVAARYVSGYLCTEPPPGEERLVGADASHAWVSVYCPVAGWVDLDPTNNVLADTRHVTLAWGRDYSDVPLLHGVIVGGGAHGVDVGVTVVPVD | not soluble
MYEPKPEHRFTFGLWTVGNVGRDPFGDAVRERLDPVYVVHKLAELGAYGVNLHDEDLIPRGTPPQERDQIVRRFKKALDETGLKVPMVTANLFSDPAFKDGAFTSPDPWVRAYALRKSLETMDLGAELGAEIYVVWPGREGAEVEATGKARKVWDWVREALNFMAAYAEDQGYGYRFALEPKPNEPRGDIYFATVGSMLAFIHTLDRPERFGLNPEFAHETMAGLNFVHAVAQALDAGKLFHIDLNDQRMSRFDQDLRFGSENLKAAFFLVDLLESSGYQGPRHFDAHALRTEDEEGVWAFARGCMRTYLILKERAEAFREDPEVKELLAAYYQEDPAALALLGPYSREKAEALKRAELPLEAKRRRGYALERLDQLAVEYLLGVRG | soluble
TLAAKAAEIHPTSLDTRLDVAAAPAELQQVAQSFNAMLERLDDGYQRLQQFSADLAHEIRTPIGSLMGHGQVALRQPRSNEEYQALIASNQEELERIARMVESILFLARADDVRAAVERSRLDLGEELRRQAEYFEGLAEERGLSLDVQVSGQLRADPQLFRRALSNLLANAIRYASADSLIEVRGLRRSGEFLLSVENACDRLPAEPLSRLFDRFYRGDAARSDAQSSGLGLAIVQAIMRLHGGRAEASAPAPGRIRFDLAFPAQD | not soluble
MSLEHFFTGTVDRIIFENAANFFKILLLAIEDTDSDIDDFEIIITGTMADIIEGDDYTFWGELTQHPKYGQQLKLSRYQKIKPSSSGLVNYFSSDHFKGIGKKTAEKIIALYGHNTIDHILEDPSKLETISGLSKANRQAFVAKLKLNYGTEQLIAGLVELGLSNRFALQAFEKYKEEALDLVKENPYQLVEDLQGFGFKMADALAENLGIESDSPKRFRAALLHCLLEESINRGDTYVQARQLLDFAITLLEDARQVECDPAAVAEQLSELIIEGKIKNSDTKLFDASLYFAEEGIANNISRLLDTPLSQSFSHDTIQTTIQAVQKDFAITYDQVQQEAITKALTSKVFLLTGGPGTGKTTVIRGILQAYANLHQIDLDKKDLPILLAAPTGRAARRMNELTGLPSATIHRHLGLNGDNDYQAMEDYLDCDLLIVDEFSMVDTWLANQLLGAINSTTQVIIVGDSDQLPSVGPGQVLSDLLKVNSLPQIALQKIFRQSQESTIVNLADQMRRGILAADFRDKKADRSYFEAQAAFIPDMIQKIVLSAIKSGIPAEEIQILAPMYKGQAGINHLNQLMQELLNPLQGQTEFLFNDTHFRKGDKVLHLVNDAQLNVFNGDIGYITDLIPAKYTESKQDELILDFDGSEVTYPRNEWLKLTLAYAMSIHKSQGSEFQVVILPITRQSGRLLQRNVIYTAITRSKSKLILLGEYTAFEYAIKHEGDKRQTYLIERFQEQSDLASSEGHHHHHH | soluble
MSLDLISFSVPGNLLLMGEYTILEEKGLGLAIAINKRAFFSFKKSDSWRFFSKKKKIDDFSLIENRSDFVFKMFAYLSQNCFFNLENFAYDVYIDTSNFFFNDGTKKGFGSSAVVAIGIVCGLFLIHNATNVVEKGEIFKYCLEAYRYSQGGIGSGYDIATSIFGGVIEFEGGFNPKCRQLGAVEFNDFYLMQGLQAIKTTTSICEYNKHRNSILDFILKCNLEMKKLVLNASNSKSALISSLRRAKELGLAIGEAIGVSAALPSSFDHLLGQCDLIKALGAGNETFLVYRPNIEAFNLSKIISIVLENEGIKFESDKEGHHHHHH | not soluble
MGSDKIHHHHHHMQFERISTEQKKLSLIQTFLHQNALKLDEQIEYFVVGYNDNEQIVVCGGLAGNIIKCVAIDESLRGSGVALQLITELVDLAYTLKRPHLFIYTKPEYATLFKSCGFYIISDANPYVVLLENSATRLQKQCSLWEKMRVDGNRIGSIVMNANPFTLGHRYLIEQALQQCDHLHLFIVGEDASQFSYTERFEMIQQGIFDLSNITLHSGSDYIISRATFPNYFLKDQLITDESYFEIDLKLFRLHIAQALGITHRFVGTELNCPVTAEYNRQMHYWLMDAEMNAPKINVIEIPRKTASNHIISASTVRKHLAEKNWAQLAEFVPMTTLNYLQKCGRF | not soluble
FVRMIFSAEKSVWIQTPYLIPDDSMINALLVAVRSGVDVRIMIPCMPDHPFIYRATQYYANYLHKRGIKIYIYDSGFIHAKTMVIDDELAMVGTTNQDIRSYSLNFEVSTFIYNPDIAWMLAQVFEEDIEKSVLLTDEIIKKQGYWLRFKQNFSRLLSPVL | not soluble
MASGKRKGLSFDDKKTRLLELFNETCDFYTLKELEKIAPKLKGIITQSVKDVLQSLVDDDLVNSDKCGVQTIYWCLPSEAVAKRQRRLDALQQQLAEKRQKLTALQRQLVQVQAGREDSVERTAVLERLAACEAAWRERQRTLESYLECDPDVLAQRETETKTLIEQANRWTDNLYVIRSYVQRNLGVDLDLFDQQFELKPALQYLE | not soluble
MGSDKIHHHHHHMPAVVVREYARLTTAPLPQNTLDAAHISPSAFSWLVKLGQQFKANGLQLLELDDQQWLRLDNYVGVLESPCGQVIEILPKHRVEGECINSARKLLRKLILNALQLKQRETEYTDIERFDAPLTEWLMAQFLTELDSVIKRGMRFDYQRIEESQRFLRGQLDVVKQLRQPAGREHIFNIRHDIFTADRAENRLLKTALLRVCKTTQDNDNWRLAHELQSLLHELPTSTDIQADFTTWRSDRLMAHYQAIKPWCEFVLSQHVPLAVQGLWQGISMLFPMERLFESYVAAELDAAVQRMLGVKGEVRTQLASKYLCKHQGKDFFQLQPDLQLKLGADHWILDTKWKLLDASDKENKYGLSQQDFYQLFAYGQTYLGGDGTLVLIYPAWHKFPAGTYLGEFRFNDKLTLKVLPFDLDAQNAAKDLISKLQQGVKQSLPS | not soluble
MTGAVCPGSFDPVTLGHVDIFERAAAQFDEVVVAILVNPAKTGMFDLDERIAMVKESTTHLPNLRVQVGHGLVVDFVRSCGMTAIVKGLRTGTDFEYELQMAQMNKHIAGVDTFFVATAPRYSFVSSSLAKEVAMLGGDVSELLPEPVNRRLRDRLN | soluble
MGSSHHHHHHSSGLVPRGSHMAADNRVQMRTTINNESPLLLSPLYGNDNGNGLWWGNTLKGAWEAIPEDVKPYAAIELHPAKVCKPTSCIPRDTKELREWYVKMLEEAQSLNIPVFLVIMSAGERNTVPPEWLDEQFQKYSVLKGVLNIANYWIYNNQLAPHSAKYLEVCAKYGAHFIWHDHEKWFWETIMNDPTFFEASQKYHKNLVLATKNTPIRDDAGTDSIVSGFWLSGLCDNWGSSTDTWKWWEKHYTNTFETGRARDMRSYASEPESMIAMEMMNVYTGGGTVYNFECAAYTFMTNDVPTPAFTKGIIPFFRHAIQNPAPSKEEVVNRTKAVFWNGEGRISSLNGFYQGLYSNDETMPLYNNGRYHILPVIHEKIDKEKISSIFPNAKILTKNSEELSSKVNYLNSLYPKLYEGDGYAQRVGNSWYIYNSNANINKNQQVMLPMYTNNTKSLSLDLTPHTYAVVKENPNNLHILLNNYRTDKTAMWALSGNFDASKSWKKEELELANWISKNYSINPVDNDFRTTTLTLKGHTGHKPQINISGDKNHYTYTENWDENTHVYTITVNHNGMVEMKI | soluble
MTSLVVPGLDTLRQWLDDLGMSFFECDNCQALHLPHMQNFDGVFDAKIDLIDNTILFSAMAEVRPSAVLPLAADLSAINASSLTVKAFLDMQDDNLPKLVVCQSLSVMQGVTYEQFAWFVRQSEEQISMVILEANAHQLLLPTDDEGQNNVTENYFLH | soluble
METYTVKLGSDKGLLVFEPAKLTIKPGDTVEFLNNKVPPHNVVFDAALNPAKSADLAKSLSHKQLLMSPGQSTSTTFPADAPAGEYTFYCEPHRGAGMVGKITVAG | soluble
MGSDKIHHHHHHMNFKQLLIDNFTYKTSYIARQAQGMNVKETKDYIAVDCGLPADTFNIITLLNNNVTEGIEKLYKEVNNYNQKKFPMSVWFWDDRYEQTIKSELIKLDLKEAEQNIAMVAELNTIHPTINMPEGFTIQKASSPEQIKKFGETLANLFGSSEEGIHVQAFYNQTASFDLWNSGNMNLYLGLYKDEVISVGSLVCTKDSIGIYDIATKEEMRGKGFGSTMFHYLLQEAKALNVAQCVLQASPDGINIYKKAGFQSVGQMTVFENRHLFE | not soluble
MQMSMLTRLHYFNCVVETGSISKASRIFDVQPSSISRQLTALEKELGVLLLKRTSRNIGLTEAGQTYYKYSQKIVSDLDEARCAVNDLQQKPKGNLKVSMAVGFAECCILPMIPTFTKLYPEINLELEMTGRVVDLVEENVDVAIRTGRLRDSNLIALKLTSNNFLLCASPQYITEHGTPKSPFNLTDFECIRYEYAGWRDWYLMNDKPTKLTIKSGLTVRSINGQKQLILNHAGLALMPKWSVINELDNGTLVQVLEQNIFSPYESMSSTYAIYLKRELISPKVRVFIDFIKDHIDYNS | not soluble
MSLYIHQTACISAQPAFADPASDHVAAAVDNKLYAIDSNYDSIPPNVLRRLGKAVKMGIATGHSLISKHPVDGIVLGTANGGLEDCIKFLNQIIEFEEGRLTPTNFVQSTTNAIAGQLGIMSSNKGYNITHVHRGLAFENALIDIEMLLNEYPSNTYLLGGVDEISAYNYTIEKLAGTYKSETISSAQLFSSQTTGTIAGEGAAMFLVNTNRLNAAAAIKGIKTYNNPSPEAIKKHLEDFLAKHLPQNEKIDVLFSGKNGDVCLNSFYEVCAQQLGKETTVCYYKQLTGDFPTVTALALWFATRFIEDSNNLPVLNIKKTGAVKNILLYNTYKGYQHSFILVSEGHHHHHH | not soluble

Source: the DeepSol protein solubility set
